How the values were obtained:
[1] = target: Swedish mutant P13-P5′ peptide with P1′ aspartic acid replaced with a valine (D→V), P05067
[2] = target: Swedish mutant P13-P5′ peptide with P1′ aspartic acid replaced with a leucine (D→L), P05067
Chain of Swedish mutant P13-P5′ peptide with P1′ aspartic acid replaced with a leucine (D→L), P05067 (P05067 whole entry, looked up, change not shown, tested part not stated): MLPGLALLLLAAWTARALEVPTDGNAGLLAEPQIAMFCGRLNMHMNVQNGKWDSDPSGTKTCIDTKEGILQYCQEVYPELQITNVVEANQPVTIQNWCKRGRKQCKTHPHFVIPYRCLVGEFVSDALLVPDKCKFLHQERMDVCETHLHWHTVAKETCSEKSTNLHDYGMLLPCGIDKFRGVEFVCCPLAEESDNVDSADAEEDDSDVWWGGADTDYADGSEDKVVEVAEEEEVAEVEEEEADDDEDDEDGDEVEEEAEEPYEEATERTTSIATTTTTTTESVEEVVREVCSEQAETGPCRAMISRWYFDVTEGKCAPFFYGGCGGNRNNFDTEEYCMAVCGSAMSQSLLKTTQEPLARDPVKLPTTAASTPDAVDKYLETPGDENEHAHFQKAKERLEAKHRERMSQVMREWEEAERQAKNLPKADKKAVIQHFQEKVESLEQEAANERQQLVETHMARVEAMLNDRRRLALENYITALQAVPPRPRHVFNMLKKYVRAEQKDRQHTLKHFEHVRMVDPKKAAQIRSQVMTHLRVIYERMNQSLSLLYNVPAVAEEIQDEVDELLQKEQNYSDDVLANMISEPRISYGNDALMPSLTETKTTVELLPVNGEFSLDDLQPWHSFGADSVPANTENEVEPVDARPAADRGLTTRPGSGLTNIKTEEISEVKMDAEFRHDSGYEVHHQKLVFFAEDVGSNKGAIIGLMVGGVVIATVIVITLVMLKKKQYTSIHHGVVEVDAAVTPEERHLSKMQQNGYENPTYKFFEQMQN

Chain of Swedish mutant P13-P5′ peptide with P1′ aspartic acid replaced with a valine (D→V), P05067 (P05067 whole entry, looked up, change not shown, tested part not stated): as above

B1: naturally occurring β-secretase purified from human brain (protein)
chain: ETDEEPEEPGRRGSFVEMVDNLRGKSGQGYYVEMTVGSPPQTLNILVDTGSSNFAVGAAPHPFLHRYYQRQLSSTYRDLRKGVYVPYTQGKWEGELGTDLVSIPHGPNVTVRANIAAITESDKFFINGSNWEGILGLAYAEIARPDDSLEPFFDSLVKQTHVPNLFSLQLCGAGFPLNQSEVLASVGGSMIIGGIDHSLYTGSLWYTPIRREWYYEVIIVRVEINGQDLKMDCKEYNYDKSIVDSGTTNLRLPKKVFEAAVKSIKAASSTEKFPDGFWLGEQLVCWQAGTTPWNIFPVISLYLMGEVTNQSFRITILPQQYLRPVEDVATSQDDCYKFAISQSSTGTVMGAVIMEGFYVVFDRARKRIGFAVSACHVHDEFRTAAVEGPFVTLDMEDCGYNIPQTDESTLMTIAYVMAAICALFMLPLCLMVCQWRCLRCLRQQHDDFADDISLLK
[1]
  substrate concentration dependence of hydrolysis by brain β-secretase: show saturation at a lower concentration than the parent Swedish peptide
[2]
  substrate concentration dependence of hydrolysis by brain β-secretase: show saturation at a lower concentration than the parent Swedish peptide

From US7456007
